Biological target: T1, human plasminogen, P00747
T1 chain: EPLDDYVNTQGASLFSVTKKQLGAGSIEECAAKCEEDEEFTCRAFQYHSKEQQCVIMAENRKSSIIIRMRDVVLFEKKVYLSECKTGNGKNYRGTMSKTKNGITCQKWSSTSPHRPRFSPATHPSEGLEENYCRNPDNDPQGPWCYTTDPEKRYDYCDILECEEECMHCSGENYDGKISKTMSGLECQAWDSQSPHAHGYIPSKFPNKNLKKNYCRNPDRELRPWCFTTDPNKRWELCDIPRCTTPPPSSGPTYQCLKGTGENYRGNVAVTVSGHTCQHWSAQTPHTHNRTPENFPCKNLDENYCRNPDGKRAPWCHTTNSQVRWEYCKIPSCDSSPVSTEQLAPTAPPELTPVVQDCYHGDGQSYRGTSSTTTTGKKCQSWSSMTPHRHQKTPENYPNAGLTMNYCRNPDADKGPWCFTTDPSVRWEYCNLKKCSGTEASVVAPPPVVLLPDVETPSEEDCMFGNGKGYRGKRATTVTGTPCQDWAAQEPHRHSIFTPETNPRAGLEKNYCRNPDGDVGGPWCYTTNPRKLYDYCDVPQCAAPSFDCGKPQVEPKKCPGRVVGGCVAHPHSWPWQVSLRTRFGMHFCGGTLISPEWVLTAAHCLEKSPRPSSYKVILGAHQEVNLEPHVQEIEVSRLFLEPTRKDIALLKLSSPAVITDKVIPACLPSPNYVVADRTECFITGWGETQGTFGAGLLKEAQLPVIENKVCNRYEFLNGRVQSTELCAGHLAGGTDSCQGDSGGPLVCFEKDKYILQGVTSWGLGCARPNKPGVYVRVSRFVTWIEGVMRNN

B1: recombinant staphylokinase (SAK) produced in E. coli from plasmid pOXYSAK-1 (protein)
chain: SSSFDKGKYKKGDDASYFEPTGPYLMVNVTGVDGKGNELLSPHYVEFPIKPGTTLTKEKIEYYVEWALDATAYKEFRVVELDPSAKIEVTYYDKNKKKEETKSFPITEKGFVVPDLSEHIKNPGFNLITKVVIEKK
Question: B1 was tested. Which “Specific activity of purified SAK protein” value did it give?
Answer: 1.75 U/µg protein

From patent US20050019862
